From publication PMC9131872

Molecular target: African swine fever virus (ASFV) decapping enzyme g5R protein, recombinant wild type (residues 1 to 250) (African swine fever virus (ASFV)) (UniProt P32092)
Experiment: cross-linking

Question: How did the stoichiometry N turn out when “African swine fever virus (ASFV) decapping enzyme g5R protein, recombinant wild type (residues 1 to 250) (from UniProt P32092 1-250)” was run?
Answer: 2
